The target in test [1] is ΔTPDM3^Col-0 Q345R (recombinant) (Arabidopsis thaliana). As to the kind of experiment: SEC. A general note: In gel filtration, larger molecules generally elute earlier.
For test [2], the target named is ΔTPDM3^Col-0 D332R (recombinant) (Arabidopsis thaliana). As to the kind of experiment: SEC.
Test [3] has as its target ΔTPDM3^Col-0 (recombinant, 52-515) (Arabidopsis thaliana). As to the kind of experiment: cryo-EM structure.
The target of test [4] is DM2h^Bla-1-Myc (Arabidopsis thaliana). As to the kind of experiment: native gel or EMSA.
In test [5] the target is ΔTPDM3^Col-0 DQN-AAA (D332A Q345A N349A triple mutant, recombinant) (Arabidopsis thaliana). Kind of test: SEC.
The target in test [6] is ΔTPDM3^Col-0 DQ-RR (D332R Q345R double mutant, recombinant) (Arabidopsis thaliana). Kind of test: SEC.
Test [7] addresses ΔTPDM3^Hh-0 S214A (recombinant) (Arabidopsis thaliana). Kind of test: SEC.
Test [8] concerns the target ΔTPDM3^Col-0 S214A (recombinant) (Arabidopsis thaliana). Kind of test: SEC.
Test [9] deals with ΔTPDM3^Hh-0 (recombinant, 52-515) (Arabidopsis thaliana). Kind of test: cryo-EM structure.

Values joined by “and” are separate entries in the source; they are usually repeats but may differ in a detail not shown here. Equal values may be shown once.

For the substance “ΔTPDM3^Col-0 Q345R (recombinant) (enzyme)”, in test [1], the stoichiometry N was found to be 6.
For “ΔTPDM3^Col-0 D332R (recombinant) (enzyme)”, the stoichiometry N in test [2] was found to be 6.
“ΔTPDM3^Col-0 (recombinant, 52-515) (enzyme)”: the stoichiometry N in test [3] is 6.
Take DM2h^Bla-1-Myc (receptor): the stoichiometry N in [4] was 2 and 4.
Turning to “ΔTPDM3^Col-0 DQN-AAA (D332A Q345A N349A triple mutant, recombinant) (enzyme)”, in test [5], the stoichiometry N came out at 6.
Regarding “ΔTPDM3^Col-0 DQ-RR (D332R Q345R double mutant, recombinant) (enzyme)”, the stoichiometry N in [6] was found to be 6.
“ΔTPDM3^Hh-0 S214A (recombinant) (enzyme)”: the stoichiometry N in test [7] was 6.
On to “ΔTPDM3^Col-0 S214A (recombinant) (enzyme)”, for which the stoichiometry N in [8] was found to be 6.
In the case of “ΔTPDM3^Hh-0 (recombinant, 52-515) (enzyme)”, the stoichiometry N in [9] was found to be 6.

A word on the stoichiometry N: it is a count of units in the complex or per binding partner.

(Values after doi:10.1101/2024.10.28.620575.)
